Data: PMC9745668 (ACS chemical biology, 2021)

T1: IPK from Candidatus methanomethylophilus alvus (CMA) (Methanomethylophilus alvi, UniProt M9SEQ1)
T1 sequence (M9SEQ1 1-259): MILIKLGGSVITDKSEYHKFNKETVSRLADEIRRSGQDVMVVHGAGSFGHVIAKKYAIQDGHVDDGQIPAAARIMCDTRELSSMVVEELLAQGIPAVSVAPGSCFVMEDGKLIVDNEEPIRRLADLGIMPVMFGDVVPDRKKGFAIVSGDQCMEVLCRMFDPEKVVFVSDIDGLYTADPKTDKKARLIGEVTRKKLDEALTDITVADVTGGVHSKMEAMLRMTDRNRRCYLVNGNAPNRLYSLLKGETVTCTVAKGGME


Key:
[1] = target: T1, IPK from Candidatus methanomethylophilus alvus (CMA); experiment: X-ray crystal structure, […] Å; assay type: binding; conditions: alkyl-P site, monomer A, partial occupancy with IP
[2] = substrate: C=C(C)CCOP(=O)(O)O; experiment: PK-LDH coupled assay, A340; assay type: biochemical, Methanomethylophilus alvi; conditions: 2 mM ATP, 5 mM MgCl2, 25 mM Tris pH 7.8, 37 °C
[3] = substrate: Cc1ccc(COP(=O)(O)O)cc1; experiment: PK-LDH coupled assay, A340; assay type: biochemical, Methanomethylophilus alvi; conditions: 2 mM ATP, 5 mM MgCl2, 25 mM Tris pH 7.8, 37 °C
[4] = substrate: O=P(O)(O)OCc1ccccc1; experiment: PK-LDH coupled assay, A340; assay type: biochemical, Methanomethylophilus alvi; conditions: 2 mM ATP, 5 mM MgCl2, 25 mM Tris pH 7.8, 37 °C

Molecule | X-ray crystal structure, 2.5 Å [1] | Km [2] [µM] | kcat [2] [s⁻¹] | kcat/Km [2] [M⁻¹ s⁻¹] | Km [3] [µM] | kcat [3] [s⁻¹] | kcat/Km [3] [M⁻¹ s⁻¹] | Km [4] [µM] | kcat [4] [s⁻¹] | kcat/Km [4] [M⁻¹ s⁻¹]
C=C(C)CCOP(=O)(O)OP(=O)(O)O [IPP] | electron density for both pairs of reagents (IP/ATP and IPP/ADP) can be modeled | – | – | – | – | – | – | – | – | –
IPK from Candidatus methanomethylophilus alvus (CMA) (Candidatus Methanomethylophilus alvi Mx1201; I74A) (protein) MILIKLGGSVITDKSEYHKFNKETVSRLADEIRRSGQDVMVVHGAGSFGHVIAKKYAIQDGHVDDGQIPAAARAMCDTRELSSMVVEELLAQGIPAVSVAPGSCFVMEDGKLIVDNEEPIRRLADLGIMPVMFGDVVPDRKKGFAIVSGDQCMEVLCRMFDPEKVVFVSDIDGLYTADPKTDKKARLIGEVTRKKLDEALTDITVADVTGGVHSKMEAMLRMTDRNRRCYLVNGNAPNRLYSLLKGETVTCTVAKGGME | – | 220 ± 20 | 42 ± 2 | 190000 | 80 ± 20 | 1.05 ± 0.07 | 13000 | 110 ± 30 | 0.41 ± 0.02 | 4000
IPK from Candidatus methanomethylophilus alvus (CMA) (Candidatus Methanomethylophilus alvi Mx1201; T209A) (protein) MILIKLGGSVITDKSEYHKFNKETVSRLADEIRRSGQDVMVVHGAGSFGHVIAKKYAIQDGHVDDGQIPAAARIMCDTRELSSMVVEELLAQGIPAVSVAPGSCFVMEDGKLIVDNEEPIRRLADLGIMPVMFGDVVPDRKKGFAIVSGDQCMEVLCRMFDPEKVVFVSDIDGLYTADPKTDKKARLIGEVTRKKLDEALTDITVADVAGGVHSKMEAMLRMTDRNRRCYLVNGNAPNRLYSLLKGETVTCTVAKGGME | – | 50 ± 20 | 0.038 ± 0.002 | 800 | – | – | – | – | – | –
IPK from Candidatus methanomethylophilus alvus (CMA) (Candidatus Methanomethylophilus alvi Mx1201; I146A) (protein) MILIKLGGSVITDKSEYHKFNKETVSRLADEIRRSGQDVMVVHGAGSFGHVIAKKYAIQDGHVDDGQIPAAARIMCDTRELSSMVVEELLAQGIPAVSVAPGSCFVMEDGKLIVDNEEPIRRLADLGIMPVMFGDVVPDRKKGFAAVSGDQCMEVLCRMFDPEKVVFVSDIDGLYTADPKTDKKARLIGEVTRKKLDEALTDITVADVTGGVHSKMEAMLRMTDRNRRCYLVNGNAPNRLYSLLKGETVTCTVAKGGME | – | 160 ± 20 | 68 ± 2 | 430000 | – | – | – | – | – | –
IPK from Candidatus methanomethylophilus alvus (CMA) (Candidatus Methanomethylophilus alvi Mx1201; V208A) (protein) MILIKLGGSVITDKSEYHKFNKETVSRLADEIRRSGQDVMVVHGAGSFGHVIAKKYAIQDGHVDDGQIPAAARIMCDTRELSSMVVEELLAQGIPAVSVAPGSCFVMEDGKLIVDNEEPIRRLADLGIMPVMFGDVVPDRKKGFAIVSGDQCMEVLCRMFDPEKVVFVSDIDGLYTADPKTDKKARLIGEVTRKKLDEALTDITVADATGGVHSKMEAMLRMTDRNRRCYLVNGNAPNRLYSLLKGETVTCTVAKGGME | – | 75 ± 10 | 5.4 ± 0.1 | 72000 | – | – | – | – | – | –
IPK from Candidatus methanomethylophilus alvus (CMA) (Candidatus Methanomethylophilus alvi Mx1201; T209S) (protein) MILIKLGGSVITDKSEYHKFNKETVSRLADEIRRSGQDVMVVHGAGSFGHVIAKKYAIQDGHVDDGQIPAAARIMCDTRELSSMVVEELLAQGIPAVSVAPGSCFVMEDGKLIVDNEEPIRRLADLGIMPVMFGDVVPDRKKGFAIVSGDQCMEVLCRMFDPEKVVFVSDIDGLYTADPKTDKKARLIGEVTRKKLDEALTDITVADVSGGVHSKMEAMLRMTDRNRRCYLVNGNAPNRLYSLLKGETVTCTVAKGGME | – | 37 ± 8 | 7.2 ± 0.3 | 200000 | – | – | – | – | – | –
IPK from Candidatus methanomethylophilus alvus (CMA) (Candidatus Methanomethylophilus alvi Mx1201; I74A/V208A) (protein) MILIKLGGSVITDKSEYHKFNKETVSRLADEIRRSGQDVMVVHGAGSFGHVIAKKYAIQDGHVDDGQIPAAARAMCDTRELSSMVVEELLAQGIPAVSVAPGSCFVMEDGKLIVDNEEPIRRLADLGIMPVMFGDVVPDRKKGFAIVSGDQCMEVLCRMFDPEKVVFVSDIDGLYTADPKTDKKARLIGEVTRKKLDEALTDITVADATGGVHSKMEAMLRMTDRNRRCYLVNGNAPNRLYSLLKGETVTCTVAKGGME | – | 750 ± 80 | 4.9 ± 0.2 | 6500 | – | – | – | – | – | –
